Where a chain is given by its changes, count along the chain named. Numbers in names are those of the source.
B1: Endo-Rp W278F/N172D/F307Y (protein)
chain: MPSLQLQPDDKLAPVSFALKSMNELRDWTPDEKIKFNVSSVALQPRVKNALKPQLLLTHDMAGGYKEDKNIQGNNYKDIYNIQYWHLADTFVYFSHERVSIPPVNWTNACHRNGVKCLGTFLVEGNNQMHEMEALLHGPPLLNNTDDPMRLWSPYYADQLVAIAKHYGFDGWLFDIECEFFPFPTNPKFKAEELAKFLHYFKEKLHNEIPGSQLIWYDSMTNEGEIHWQNQLTWKNELFFKNTDGIFLNYWWKKEYPEMARRVAEGIGRSGLEVYFGTDVFGRHTYGGGGFKSYKGVKTAYSAMTSSALYGMAWTYEHFEKSEFEKMDRLFWCGGKYSDYPPPPPKNPDDEKEVESDDSEDELMYGHKKGIADTVESIPVPGTDWFVTNFDRGFGNRFYYRGKRLLSQPWSHLSHQAILPNKSYRNPEIYPTDQNIKITSSLDCDHGAFLGGTSLIIKGQRFNHRESHDVETEISIPLYKLSLDASKGCSLRYIYRTLLMKDVKLTVACHFSLKTNDSVNFFKVWQPDENFSFEYDDGMRATVTTENSTESRCFLLRTTEEDTGENDWITKTINVPAVPEGSQLYITRLEVSVVLDTAGLVGLVNQVIACLGYISIIPTINSGIKTDSSRIIQDLFWKDQKYTKIGKESLDDIAQEEVHRYYGTLNWENTANVVNAWEEIDYYNVFYKESDDSATRIFLGTAFCNQFRVSGLDIILSKLPKIVIEAVNKEGYISSSGSIDLSLN
B2: Endo-Rp W278F/N172D/A310D (protein)
chain: B1 chain with Y310F, A313D
B3: Endo-Rp W278F/N172D/F307H (protein)
chain: B1 chain with Y310H
B4: Endo-Rp Y214F/F307Y/L306I (protein)
chain: B1 chain with D175N, Y217F, F281W, L309I

Tests used:
[1] = system: (Fucα1,6)GlcNAc-mAb2; assay: One-pot method with various sugar chain donors, Endo-Rp N172H and Endo-Si D241M/Q311L; type: biochemical; details: donor 50 eq., Endo-Rp N172H 8 μg, Endo-Si D241M/Q311L 10 μg, 28° C., pH 7.5
Description: Transglycosylation activity was evaluated as follows. […] When SGP was used as a donor, the transglycosylation rate was calculated in accordance with the formula for computation described in Example 5.

[2] = system: (Fucα1,6)GlcNAc-mAb2; assay: One-pot method: Endo-Rp mutant enzymes (enzyme A) combined with Endo-Si D241Q, SGP donor; type: biochemical; details: Endo-Rp mutant enzyme 8 μg with Endo-Si D241Q 5 μg, SGP (50 eq.), 28° C., pH 7.5
Description: Using Endo-Rp, which is known to transfer a sugar chain from a sugar chain donor, SGP, to a GlcNAc derivative, as a representative of enzyme A, the property of enzyme A that can be used in combination with Endo-Si was investigated.
The transglycosylation activity on an antibody by the one-pot method was evaluated as follows. A 50 mM (sodium) phosphorate buffer (pH 7.5) solution (17 μL) containing (Fucα1,6)GlcNAc-mAb2 (0.5 mg), SGP (0.485 mg (50 eq.)), Endo-M N175Q (manufactured by Tokyo Kasei Kogyo Co., Ltd.) (2.5 mU) or each of various Endo-Rp mutant enzymes (8 μg) and Endo-Si D241Q (5 μg) was prepared and incubated at 28° C. A sample was taken from each of the reaction solutions at 2, 4, 6, 24, and 48 hours after initiation of the reaction and analyzed for protein by a fully automated electrophoresis system as mentioned above. In the chromatogram obtained, the transglycosylation rate was calculated in accordance with the formula for computation described in Example 5.

Molecule | Transglycosylation rate (%) ([1]; 2 h) | Transglycosylation rate (%) ([1]; 4 h) | Transglycosylation rate (%) ([1]; 6 h) | Transglycosylation rate (%) ([1]; 24 h) | Transglycosylation rate (%) ([1]; 48 h) | Change in transglycosylation rate (%) with time ([2]; 2 h) | Change in transglycosylation rate (%) with time ([2]; 4 h) | Change in transglycosylation rate (%) with time ([2]; 6 h) | Change in transglycosylation rate (%) with time ([2]; 24 h) | Change in transglycosylation rate (%) with time ([2]; 48 h)
sialyl glycopeptide [SGP] | 3.8% | 5.0% | 11.2% | 53.5% | 89.7% | – | – | – | – | –
B1 | – | – | – | – | – | 12.0% | 19.0% | 24.9% | 76.5% | 93.1%
B2 | – | – | – | – | – | 0.0% | 0.0% | 0.0% | 8.5% | 17.0%
B3 | – | – | – | – | – | 8.8% | 13.4% | 17.7% | 66.1% | 91.1%
B4 | – | – | – | – | – | 34.5% | 53.0% | 63.4% | 87.4% | 88.8%

— patent publication US20240336907A1, “NOVEL ENDO-ß-N-ACETYLGLUCOSAMINIDASE” (priority 2020, published 2024)
